Assay results as given in patent publication US20200087297A1 (Genentech, published 2020).
Several values for one entry are separate records, joined by “and”; a condition that tells them apart may be missing. Equal entries are not always repeated. Where two headings read alike, the source gives them in different places.

Assays:
[1] = target: T1, NaPi2b (SLC34A2, type II sodium-dependent phosphate transporter 3b) (human, UniProt O95436 1-690); experiment: cell-based or functional assay
T1 sequence (looked up): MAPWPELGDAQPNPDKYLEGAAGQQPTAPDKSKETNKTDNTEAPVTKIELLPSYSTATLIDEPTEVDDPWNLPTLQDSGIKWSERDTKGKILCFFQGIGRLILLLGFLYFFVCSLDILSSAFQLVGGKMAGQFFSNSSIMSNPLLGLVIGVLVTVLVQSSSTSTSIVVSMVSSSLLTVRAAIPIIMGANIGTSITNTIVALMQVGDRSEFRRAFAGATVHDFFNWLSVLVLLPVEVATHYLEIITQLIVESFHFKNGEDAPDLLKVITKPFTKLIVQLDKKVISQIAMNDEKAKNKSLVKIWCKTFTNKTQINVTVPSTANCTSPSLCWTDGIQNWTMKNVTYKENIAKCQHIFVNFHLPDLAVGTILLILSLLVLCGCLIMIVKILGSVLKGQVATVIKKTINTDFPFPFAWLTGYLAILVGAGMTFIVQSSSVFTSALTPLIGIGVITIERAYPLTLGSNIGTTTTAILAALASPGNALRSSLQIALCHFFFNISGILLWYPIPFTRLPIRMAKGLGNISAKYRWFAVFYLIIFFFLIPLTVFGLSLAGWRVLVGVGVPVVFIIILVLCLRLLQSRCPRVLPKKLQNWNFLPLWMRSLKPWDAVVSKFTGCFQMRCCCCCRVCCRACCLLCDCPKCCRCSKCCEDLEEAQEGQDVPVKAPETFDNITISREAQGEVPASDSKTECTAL

[2] = target: T1, NaPi2b (SLC34A2, type II …); experiment: cell-based or functional assay; remark: listed apart in the source

B1: Anti-Napi2b 10H1.11.4B LC K149C MC-Sq-Cit-PAB-Tubulysin M (antibody, DAR 1, V domains shown)
VH: EVQLVESGGGLVQPGGSLRLSCAASGFSFSDFAMSWVRQAPGKGLEWVATIGRVAFHTYYPDSMKGRFTISRDNSKNTLYLQMNSLRAEDTAVYYCARHRGFDVGHFDFWGQGTLVTVSS
VL: DIQMTQSPSSLSASVGDRVTITCRSSETLVHSSGNTYLEWYQQKPGKAPKLLIYRVSNRFSGVPSRFSGSGSGTDFTLTISSLQPEDFATYYCFQGSFNPLTFGQGTKVEIKR
IGROV-1 IC50 (EdU Prolif assay) [1]: 2.07 nM and 310 ng/mL | OVCAR-3x2.1 IC50 (EdU Prolif assay) [1]: 151 ng/mL and 1 nM

B2: Anti-Napi2b 10H1.11.4B LC K149C MC-Sq-Cit-PAB Dolastatin 10 (antibody, DAR 1, V domains shown)
VH: EVQLVESGGGLVQPGGSLRLSCAASGFSFSDFAMSWVRQAPGKGLEWVATIGRVAFHTYYPDSMKGRFTISRDNSKNTLYLQMNSLRAEDTAVYYCARHRGFDVGHFDFWGQGTLVTVSS
VL: DIQMTQSPSSLSASVGDRVTITCRSSETLVHSSGNTYLEWYQQKPGKAPKLLIYRVSNRFSGVPSRFSGSGSGTDFTLTISSLQPEDFATYYCFQGSFNPLTFGQGTKVEIKR
IGROV-1 IC50 (EdU Prolif assay) [2]: 3.19 nM and 478 ng/mL | OVCAR-3x2.1 IC50 (EdU Prolif assay) [2]: 1.52 nM and 228 ng/mL
